Laboratory results taken from US20110091994A1, “Methods for Screening Compounds for Treating and/or Preventing an Hepatitis C Virus Infection” (priority 2008, published 2011).

B1: MMRN2 (protein, UniProt Q9H8L6 23-949, looked up)
Multimerin-2: QASSTSLSDLQSSRTPGVWKAEAEDTGKDPVGRNWCPYPMSKLVTLLALCKTEKFLIHSQQPCPQGAPDCQKVKVMYRMAHKPVYQVKQKVLTSLAWRCCPGYTGPNCEHHDSMAIPEPADPGDSHQEPQDGPVSFKPGHLAAVINEVEVQQEQQEHLLGDLQNDVHRVADSLPGLWKALPGNLTAAVMEANQTGHEFPDRSLEQVLLPHVDTFLQVHFSPIWRSFNQSLHSLTQAIRNLSLDVEANRQAISRVQDSAVARADFQELGAKFEAKVQENTQRVGQLRQDVEDRLHAQHFTLHRSISELQADVDTKLKRLHKAQEAPGTNGSLVLATPGAGARPEPDSLQARLGQLQRNLSELHMTTARREEELQYTLEDMRATLTRHVDEIKELYSESDETFDQISKVERQVEELQVNHTALRELRVILMEKSLIMEENKEEVERQLLELNLTLQHLQGGHADLIKYVKDCNCQKLYLDLDVIREGQRDATRALEETQVSLDERRQLDGSSLQALQNAVDAVSLAVDAHKAEGERARAATSRLRSQVQALDDEVGALKAAAAEARHEVRQLHSAFAALLEDALRHEAVLAALFGEEVLEEMSEQTPGPLPLSYEQIRVALQDAASGLQEQALGWDELAARVTALEQASEPPRPAEHLEPSHDAGREEAATTALAGLARELQSLSNDVKNVGRCCEAEAGAGAASLNASLHGLHNALFATQRSLEQHQRLFHSLFGNFQGLMEANVSLDLGKLQTMLSRKGKKQQKDLEAPRKRDKKEAEPLVDIRVTGPVPGALGAALWEAGSPVAFYASFSEGTAALQTVKFNTTYINIGSSYFPEHGYFRAPERGVYLFAVSVEFGPGPGTGQLVFGGHHRTPVCTTGQGSGSTATVFAMAELQKGERVWFELTQGSITKRSLSGTAFGGFLMFKT
B2: PLEKHG4 (protein, UniProt Q58EX7 1-1191, looked up)
Puratrophin-1: MERPLENGDESPDSQGHATDWRFAVCSFRDAWEEEEPASQMHVKDPGPPRPPAGATQDEELQGSPLSRKFQLPPAADESGDAQRGTVESSSVLSEGPGPSGVESLLCPMSSHLSLAQGESDTPGVGLVGDPGPSRAMPSGLSPGALDSDPVGLGDPLSEISKLLEAAPSGSGLPKPADCLLAQDLCWELLASGMATLPGTRDVQGRAVLLLCAHSPAWLQSECSSQELIRLLLYLRSIPRPEVQALGLTVLVDARICAPSSSLFSGLSQLQEAAPGAVYQVLLVGSTLLKEVPSGLQLEQLPSQSLLTHIPTAGLPTSLGGGLPYCHQAWLDFRRRLEALLQNCQAACALLQGAIESVKAVPQPMEPGEVGQLLQQTEVLMQQVLDSPWLAWLQCQGGRELTWLKQEVPEVTLSPDYRTAMDKADELYDRVDGLLHQLTLQSNQRIQALELVQTLEARESGLHQIEVWLQQVGWPALEEAGEPSLDMLLQAQGSFQELYQVAQEQVRQGEKFLQPLTGWEAAELDPPGARFLALRAQLTEFSRALAQRCQRLADAERLFQLFREALTWAEEGQRVLAELEQERPGVVLQQLQLHWTRHPDLPPAHFRKMWALATGLGSEAIRQECRWAWARCQDTWLALDQKLEASLKLPPVGSTASLCVSQVPAAPAHPPLRKAYSFDRNLGQSLSEPACHCHHAATIAACRRPEAGGGALPQASPTVPPPGSSDPRSLNRLQLVLAEMVATEREYVRALEYTMENYFPELDRPDVPQGLRGQRAHLFGNLEKLRDFHCHFFLRELEACTRHPPRVAYAFLRHRVQFGMYALYSKNKPRSDALMSSYGHTFFKDKQQALGDHLDLASYLLKPIQRMGKYALLLQELARACGGPTQELSALREAQSLVHFQLRHGNDLLAMDAIQGCDVNLKEQGQLVRQDEFVVRTGRHKSVRRIFLFEELLLFSKPRHGPTGVDTFAYKRSFKMADLGLTECCGNSNLRFEIWFRRRKARDTFVLQASSLAIKQAWTADISHLLWRQAVHNKEVRMAEMVSMGVGNKAFRDIAPSEEAINDRTVNYVLKCREVRSRASIAVAPFDHDSLYLGASNSLPGDPASCSVLGSLNLHLYRDPALLGLRCPLYPSFPEEAALEAEAELGGQPSLTAEDSEISSQCPSASGSSGSDSSCVSGQALGRGLEDLPCV
B3: PICK1 (protein, UniProt Q9NRD5 1-415, looked up)
PRKCA-binding protein: MFADLDYDIEEDKLGIPTVPGKVTLQKDAQNLIGISIGGGAQYCPCLYIVQVFDNTPAALDGTVAAGDEITGVNGRSIKGKTKVEVAKMIQEVKGEVTIHYNKLQADPKQGMSLDIVLKKVKHRLVENMSSGTADALGLSRAILCNDGLVKRLEELERTAELYKGMTEHTKNLLRAFYELSQTHRAFGDVFSVIGVREPQPAASEAFVKFADAHRSIEKFGIRLLKTIKPMLTDLNTYLNKAIPDTRLTIKKYLDVKFEYLSYCLKVKEMDDEEYSCIALGEPLYRVSTGNYEYRLILRCRQEARARFSQMRKDVLEKMELLDQKHVQDIVFQLQRLVSTMSKYYNDCYAVLRDADVFPIEVDLAHTTLAYGLNQEEFTDGEEEEEEEDTAAGEPSRDTRGAAGPLDKGGSWCDS
B4: NUP62 (protein, UniProt P37198 2-522, looked up)
Nuclear pore glycoprotein p62: SGFNFGGTGAPTGGFTFGTAKTATTTPATGFSFSTSGTGGFNFGAPFQPATSTPSTGLFSLATQTPATQTTGFTFGTATLASGGTGFSLGIGASKLNLSNTAATPAMANPSGFGLGSSNLTNAISSTVTSSQGTAPTGFVFGPSTTSVAPATTSGGFSFTGGSTAQPSGFNIGSAGNSAQPTAPATLPFTPATPAATTAGATQPAAPTPTATITSTGPSLFASIATAPTSSATTGLSLCTPVTTAGAPTAGTQGFSLKAPGAASGTSTTTSTAATATATTTSSSSTTGFALNLKPLAPAGIPSNTAAAVTAPPGPGAAAGAAASSAMTYAQLESLINKWSLELEDQERHFLQQATQVNAWDRTLIENGEKITSLHREVEKVKLDQKRLDQELDFILSQQKELEDLLSPLEELVKEQSGTIYLQHADEEREKTYKLAENIDAQLKRMAQDLKDIIEHLNTSGAPADTSDPLQQICKILNAHMDSLQWIDQNSALLQRKVEEVTKVCEGRRKEQERSFRITFD
B5: PKNOX1 (protein, UniProt P55347 1-436, looked up)
Homeobox protein PKNOX1: MMATQTLSIDSYQDGQQMQVVTELKTEQDPNCSEPDAEGVSPPPVESQTPMDVDKQAIYRHPLFPLLALLFEKCEQSTQGSEGTTSASFDVDIENFVRKQEKEGKPFFCEDPETDNLMVKAIQVLRIHLLELEKVNELCKDFCSRYIACLKTKMNSETLLSGEPGSPYSPVQSQQIQSAITGTISPQGIVVPASALQQGNVAMATVAGGTVYQPVTVVTPQGQVVTQTLSPGTIRIQNSQLQLQLNQDLSILHQDDGSSKNKRGVLPKHATNVMRSWLFQHIGHPYPTEDEKKQIAAQTNLTLLQVNNWFINARRRILQPMLDSSCSETPKTKKKTAQNRPVQRFWPDSIASGVAQPPPSELTMSEGAVVTITTPVNMNVDSLQSLSSDGATLAVQQVMMAGQSEDESVDSTEEDAGALAPAHISGLVLENSDSLQ
B6: PCYT2 (protein, UniProt Q99447 1-389, looked up)
Ethanolamine-phosphate …: MIRNGRGAAGGAEQPGPGGRRAVRVWCDGCYDMVHYGHSNQLRQARAMGDYLIVGVHTDEEIAKHKGPPVFTQEERYKMVQAIKWVDEVVPAAPYVTTLETLDKYNCDFCVHGNDITLTVDGRDTYEEVKQAGRYRECKRTQGVSTTDLVGRMLLVTKAHHSSQEMSSEYREYADSFGKCPGGRNPWTGVSQFLQTSQKIIQFASGKEPQPGETVIYVAGAFDLFHIGHVDFLEKVHRLAERPYIIAGLHFDQEVNHYKGKNYPIMNLHERTLSVLACRYVSEVVIGAPYAVTAELLSHFKVDLVCHGKTEIIPDRDGSDPYQEPKRRGIFRQIDSGSNLTTDLIVQRIITNRLEYEARNQKKEAKELAFLEAARQQAAQPLGERDGDF
B7: PDLIM5 (protein, UniProt Q96HC4 2-596, looked up)
PDZ and LIM domain protein 5: SNYSVSLVGPAPWGFRLQGGKDFNMPLTISSLKDGGKAAQANVRIGDVVLSIDGINAQGMTHLEAQNKIKGCTGSLNMTLQRASAAPKPEPVPVQKGEPKEVVKPVPITSPAVSKVTSTNNMAYNKAPRPFGSVSSPKVTSIPSPSSAFTPAHATTSSHASPSPVAAVTPPLFAASGLHANANLSADQSPSALSAGKTAVNVPRQPTVTSVCSETSQELAEGQRRGSQGDSKQQNGPPRKHIVERYTEFYHVPTHSDASKKRLIEDTEDWRPRTGTTQSRSFRILAQITGTEHLKESEADNTKKANNSQEPSPQLASSVASTRSMPESLDSPTSGRPGVTSLTAAAAFKPVGSTGVIKSPSWQRPNQGVPSTGRISNSATYSGSVAPANSALGQTQPSDQDTLVQRAEHIPAGKRTPMCAHCNQVIRGPFLVALGKSWHPEEFNCAHCKNTMAYIGFVEEKGALYCELCYEKFFAPECGRCQRKILGEVISALKQTWHVSCFVCVACGKPIRNNVFHLEDGEPYCETDYYALFGTICHGCEFPIEAGDMFLEALGYTWHDTCFVCSVCCESLEGQTFFSKKDKPLCKKHAHSVNF
B8: PNPLA8 (protein, UniProt Q9NP80 1-782, looked up)
Calcium-independent …: MSINLTVDIYIYLLSNARSVCGKQRSKQLYFLFSPKHYWRISHISLQRGFHTNIIRCKWTKSEAHSCSKHCYSPSNHGLHIGILKLSTSAPKGLTKVNICMSRIKSTLNSVSKAVFGNQNEMISRLAQFKPSSQILRKVSDSGWLKQKNIKQAIKSLKKYSDKSAEKSPFPEEKSHIIDKEEDIGKRSLFHYTSSITTKFGDSFYFLSNHINSYFKRKEKMSQQKENEHFRDKSELEDKKVEEGKLRSPDPGILAYKPGSESVHTVDKPTSPSAIPDVLQVSTKQSIANFLSRPTEGVQALVGGYIGGLVPKLKYDSKSQSEEQEEPAKTDQAVSKDRNAEEKKRLSLQREKIIARVSIDNRTRALVQALRRTTDPKLCITRVEELTFHLLEFPEGKGVAVKERIIPYLLRLRQIKDETLQAAVREILALIGYVDPVKGRGIRILSIDGGGTRGVVALQTLRKLVELTQKPVHQLFDYICGVSTGAILAFMLGLFHMPLDECEELYRKLGSDVFSQNVIVGTVKMSWSHAFYDSQTWENILKDRMGSALMIETARNPTCPKVAAVSTIVNRGITPKAFVFRNYGHFPGINSHYLGGCQYKMWQAIRASSAAPGYFAEYALGNDLHQDGGLLLNNPSALAMHECKCLWPDVPLECIVSLGTGRYESDVRNTVTYTSLKTKLSNVINSATDTEEVHIMLDGLLPPDTYFRFNPVMCENIPLDESRNEKLDQLQLEGLKYIERNEQKMKKVAKILSQEKTTLQKINDWIKLKTDMYEGLPFFSKL

molecular target: T1, HCV proteins (Hepatitis C virus genotype 1b, UniProt Q9WMX2); experiment: Validation by Y2H pairwise matrices; assay type: binding; conditions: validation of interaction with HCV protein CORE;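 note: yeast two-hybrid pairwise tests of interactions first found in Y2H screens of HCV bait proteins against human cDNA libraries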
T1 construct: expressed in transfected cells
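Throughout, for IMAP Y2H IMAP1 (number of IST): yeast two-hybrid screens using HCV genotype 1b proteins fused to Gal4-DB as baits against prey cDNA libraries from human spleen and foetal brain, IMAP1 via transformation and IMAP2 via mating.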
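Throughout, for Interaction with viral protein: yeast two-hybrid screens using HCV genotype 1b proteins fused to Gal4-DB as baits against prey cDNA libraries from human spleen and foetal brain, IMAP1 via transformation and IMAP2 via mating.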

Row | Molecule | Y2H matrices
1 | B1 | +

same assay, conditions: validation of interaction with HCV protein NS3

Row | Molecule | Y2H matrices
2 | B2 | +
3 | B3 | +
4 | B4 | +
5 | B5 | +
6 | B6 | +
7 | B7 | +
8 | B8 | +

test system: HCV ORFs (Gal4-DB fusions); experiment: not given; assay type: binding, HCV genotype 1b, isolate con1; conditions: human protein listed by gene symbol; the value names the HCV protein it interacts with

Row | Molecule | Interaction with viral protein
9 | B2 | NS3
10 | B3 | NS3
11 | B4 | NS3
12 | B5 | NS3
13 | B6 | NS3
14 | B7 | NS3
15 | B8 | NS3
16 | B1 | CORE

molecular target: T2, HCV ORFs (Gal4-DB fusions) (Hepatitis C virus genotype 1b, UniProt Q9WMX2); experiment: not given; assay type: binding, HCV genotype 1b, isolate con1; conditions: HCV protein CORE as bait; human protein as prey
T2 construct: expressed in transfected cells; host or cells: Saccharomyces cerevisiae MAV203 (IMAP1) / AH109 (IMAP2)

Row | Molecule | IMAP Y2H IMAP1 (number of IST)
17 | B1 | 1

same assay, conditions: HCV protein NS3 as bait; human protein as prey

Row | Molecule | IMAP Y2H IMAP1 (number of IST)
18 | B2 | 1
19 | B3 | 3
20 | B4 | 3
21 | B5 | 1
22 | B6 | 1
23 | B7 | 1
24 | B8 | 1
